Positions count from the first letter of the chain named. Numbers in names are those of the source. Values belong to the molecule of their own block, whether it stands above or below them.
Assays:
Type in all cases: biochemical, Z. mays
[1] = test system: 4-hydroxyphenylpyruvate dioxygenase (HPPD); experiment: Insensitivity parameter (ON × OFF) and trait fitness (ON × OFF × kcat/KM or × kcat); conditions: for ON × OFF × kcat, Value / ON × OFF × kcat, Fold vs wt / ON × OFF, fold vs wt / ON × OFF (parameters with tembotrione): Table 5, tembotrione; for ON × OFF × kcat, Fold vs wt / ON × OFF, fold vs wt: fold vs maize wild type HPPD; for ON × OFF (parameters with tembotrione): insensitivity parameter
In short: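 Trait fitness combines catalysis and insensitivity as kcat/KM × ON rate ratio × OFF rate ratio. The insensitivity parameter is the product of ON and OFF rate ratios, used in place of KD because the ON rate ratio is inverse.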

[2] = test system: 4-hydroxyphenylpyruvate dioxygenase (HPPD); experiment: OFF rate ratio: release of inhibitor from pre-formed enzyme-inhibitor complex; conditions: Table 5; tembotrione
In short: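 Inhibitor release from pre-formed complex (enzyme 7.2 μM, inhibitor 8 μM, 1 h RT) tracked as accelerating HPPD activity at 320 nm over 12 min, coupled via 50 nM HGD with 100 μM HPP at pH 7. OFF rate ratio: steady-state velocity relative to uninhibited initial velocity.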

[3] = test system: 4-hydroxyphenylpyruvate dioxygenase (HPPD); experiment: ON rate ratio: HPPD reaction rate with vs without inhibitor in the 70 to 90 second interval; conditions: Table 5; tembotrione
In short: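 Indicator of inhibitor on-rate: reaction velocity in the 70 to 90 second window with 4 μM inhibitor divided by that without. Reactions contained 100 μM HPP and 60 or 120 nM HPPD; slower binding gives a larger ratio.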

[4] = test system: 4-hydroxyphenylpyruvate dioxygenase (HPPD); experiment: HPPD activity coupled assay with HGD; substrate saturation kinetic parameters (kcat, KM); conditions: Table 6; for kcat: single substitutions in SEQ ID NO:2
Protocol: Wild type and shuffled variant genes were cloned into pVER7062, a modified version of pET24a(+)(Novagen), which places six histidine residues at the N-terminus of the expressed protein. Vectors were electroporated into E. coli host strain BL21(DE3). Cells were grown at 30 C in rich medium such as 2×YT containing the selection antibiotic, kanamycin. At a density of about 0.6 OD600, IPTG was added to 0.2 mM, the temperature was reduced to 16 C and growth continued for another 24 hrs. Cells were harvested by centrifugation and stored at −80 C. Cell pellets were lysed in BPER (Pierce) protein extraction reagent containing 0.2 mg/ml lysozyme, 1 mM dithiothreitol, protease inhibitor cocktail (Sigma, bacterial cocktail) and endonuclease. Insoluble cellular debris was removed by centrifugation. HPPD protein was purified from the soluble protein solution by affinity chromatography on the nickel form of nitrilotriacetic acid (Ni-NTA) resin (Qiagen). Protein concentrations were determined by the Bradford method, as supplied by Bio-Rad.
HPPD catalyzes the conversion of 4-hydroxyphenylpyruvate (HPP) to homogentisate (FIG. 17). […] However, the product of the ensuing reaction in tyrosine metabolism, maleylacetoacetate, absorbs strongly at 320 nm. Furthermore, the enzyme catalyzing that reaction is also a dioxygenase having similar mechanism and buffer requirements as HPPD, making homogentisate dioxygenase (HGD) an ideal partner in a coupled assay, as shown.
The HDG gene from Pseudomonas aeruginosa (Amaya (2004) Arch Biochem Biophys 421, 135-142) was cloned into pVER7062 and electroporated into E. coli strain BL21(DE3). The enzyme was produced by methods similar to those described for HPPD. The purified enzyme has a KM for homogentisate of 23 μM and a kcat of 100/sec, properties highly suited for instantly converting the homogentisate produced by HPPD to maleylacetoacetate.
HPPD activity was measured by placing an aliquot (e.g., 6 μl) of the substrate HPP at 50-fold the desired final concentration into the wells of a low UV-absorbing assay plate. Reactions were started by adding a mixture (e.g., 294 μl) containing 25 mM Hepes, pH 7, 2 mM ascorbate, 10 μM FeSO4, 1 to 100 μM HPP, 50 nM HGD and 5 to 240 nM HPPD. Absorbance at 320 nm was monitored continuously in a plate-reading spectrophotometer (Spectramax, Molecular Devices).
The catalytic performance of wild-type HPPD and variants generated by shuffling was assessed by determining the substrate saturation kinetic parameters. The Michaelis-Menten kinetics protocol of the Spectramax software was customized for HPP concentrations ranging from 3.33 μM to 100 μM. Reaction rates were measured as described above for each concentration of HPP. The software returns values of KM and Vmax using the Lineweaver-Burke transformation of the Michaelis-Menten equation.

[5] = test system: 4-hydroxyphenylpyruvate dioxygenase (HPPD); experiment: Estimate of kcat from initial rate at saturating hydroxyphenylpyruvate without inhibitor (ON rate ratio assay); conditions: Table 5; single substitutions in Round 7 variant 9070 (SEQ ID NO:2); estimate from initial rate at saturating hydroxyphenylpyruvate without inhibitor
In short: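 kcat was estimated from the initial reaction rate with known enzyme level (60 or 120 nM HPPD). Hydroxyphenylpyruvate was at a saturating 100 μM, with no inhibitor present.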

[6] = DKN (diketonitrile form of isoxaflutole)
[7] = DKN (isoxaflutole diketonitrile)

Insensitivity parameter, ON × OFF [1, 6]: 0.25
Insensitivity parameter, ON × OFF ([1]; Mesotrione, Table 6): 0.48
Insensitivity parameter, ON × OFF ([1]; Sulcotrione): 0.55
ON × OFF, fold vs wt [1]: 31.2
ON × OFF (parameters with tembotrione) [1]: 0.16
Insensitivity parameter, ON × OFF ([1]; Tembotrione): 0.18
Insensitivity parameter, ON × OFF ([1]; Topramezon): 0.23
OFF ratio (parameters with tembotrione) [2]: 0.21
ON ratio (parameters with tembotrione) [3]: 0.75
B1: 356K: single substitution E356K in SEQ ID NO:2 (protein)
chain: MGPTPTATAAGAAVAAASAAEQAAFRLVGHRNFVRFNPRSDRFQTLAFHHVELWCADAASAAGRFSFALGVPLAARSDLSTGNSAHASLLLRSGSLSLLFTAPYAHGADAATAALPSFSAAAARRFAADHGLAVRAVALRVADAEDAFRASVAAGARPAFGPVDLGRGFRLAEVELYGDVVLRYVSYPDGAAGEPFLPGFEGVASPGAADYGLSRFDHIVGNVPELAPAAAYMAGFTGFHEFAEFTTEDVGTTESGLNSMALANNSENVLLPLNEPVHGTKRRSQIQTFLDHHGGPGVQHIALASDDVLRTLREMRARSAMGGFEFLPPPLSDYYDGVRRCAGDVLTEAQINECQKLGVMVDRDDQGVLLQIFTKPVGDRPTFFLEIIQRIGCMEKDEKGQEYQKGGCGGFGKGNFGQLFKSIEDYEKSLEAKQAAAAATAQGS
modifications: Zea mays variant form created by artificial means.
ON × OFF × kcat/km fold vs Round 7, variant 9070 [1, 7]: 1.1
ON × OFF × kcat/km fold vs Round 7, variant 9070 ([1]; Sulco (sulcotrione)): 1.1
ON × OFF × kcat, Value [1]: 6.18
ON × OFF × kcat, Fold vs wt [1]: 5.78
ON × OFF × kcat/km fold vs Round 7, variant 9070 ([1]; Topra (topramezone)): 0.9
ON × OFF × kcat/km fold vs Round 7, variant 9070 ([1]; meso (mesotrione)): 1.2
ON × OFF × kcat/km fold vs Round 7, variant 9070 ([1]; tembo (tembotrione)): 1.2
Km [4]: 2600 nM
kcat [4]: 65.8 min⁻¹
kcat [5]: 38.8 min⁻¹

Insensitivity parameter, ON × OFF [1, 6]: 0.38
Insensitivity parameter, ON × OFF ([1]; Mesotrione, Table 6): 0.54
Insensitivity parameter, ON × OFF ([1]; Sulcotrione): 0.63
ON × OFF, fold vs wt [1]: 40.6
ON × OFF (parameters with tembotrione) [1]: 0.21
Insensitivity parameter, ON × OFF ([1]; Tembotrione): 0.29
Insensitivity parameter, ON × OFF ([1]; Topramezon): 0.37
OFF ratio (parameters with tembotrione) [2]: 0.27
ON ratio (parameters with tembotrione) [3]: 0.77
B2: 158K: single substitution P158K in SEQ ID NO:2 (protein)
chain: B1 chain with P158K, K356E
modifications: Zea mays variant form created by artificial means.
ON × OFF × kcat/km fold vs Round 7, variant 9070 [1, 7]: 1.0
ON × OFF × kcat/km fold vs Round 7, variant 9070 ([1]; Sulco (sulcotrione)): 0.9
ON × OFF × kcat, Value [1]: 10.44
ON × OFF × kcat, Fold vs wt [1]: 9.76
ON × OFF × kcat/km fold vs Round 7, variant 9070 ([1]; Topra (topramezone)): 1.1
ON × OFF × kcat/km fold vs Round 7, variant 9070 ([1]; meso (mesotrione)): 1.0
ON × OFF × kcat/km fold vs Round 7, variant 9070 ([1]; tembo (tembotrione)): 1.3
Km [4]: 2490 nM
kcat [4]: 47.1 min⁻¹
kcat [5]: 50.4 min⁻¹

Insensitivity parameter, ON × OFF [1, 6]: 0.41
Insensitivity parameter, ON × OFF ([1]; Mesotrione, Table 6): 0.56
Insensitivity parameter, ON × OFF ([1]; Sulcotrione): 0.70
ON × OFF, fold vs wt [1]: 39.5
ON × OFF (parameters with tembotrione) [1]: 0.20
Insensitivity parameter, ON × OFF ([1]; Tembotrione): 0.28
Insensitivity parameter, ON × OFF ([1]; Topramezon): 0.38
OFF ratio (parameters with tembotrione) [2]: 0.27
ON ratio (parameters with tembotrione) [3]: 0.75
B3: 385I: single substitution L385I in SEQ ID NO:2 (protein)
chain: B1 chain with K356E, L385I
modifications: Zea mays variant form created by artificial means.
ON × OFF × kcat/km fold vs Round 7, variant 9070 [1, 7]: 1.2
ON × OFF × kcat/km fold vs Round 7, variant 9070 ([1]; Sulco (sulcotrione)): 1.1
ON × OFF × kcat, Value [1]: 5.55
ON × OFF × kcat, Fold vs wt [1]: 5.18
ON × OFF × kcat/km fold vs Round 7, variant 9070 ([1]; Topra (topramezone)): 1.2
ON × OFF × kcat/km fold vs Round 7, variant 9070 ([1]; meso (mesotrione)): 1.1
ON × OFF × kcat/km fold vs Round 7, variant 9070 ([1]; tembo (tembotrione)): 1.3
Km [4]: 2290 nM
kcat [4]: 46.1 min⁻¹
kcat [5]: 27.5 min⁻¹
